One substance from publication PMC6859792 can be followed below.

The subject of this series is O=P(O)(O)O[C@H]1O[C@H]([C@H](O)CO)[C@@H](O)[C@H](O)[C@@H]1O. Put plainly: purified protein. To be noted: pH 7.4, 25 °C, GTP 1.0 mM, MgCl2 2.0 mM, pyrophosphatase 1 U.

A word on the Km: it is the substrate concentration at which the rate is half of its maximum. A word on the kcat: it is the maximal rate divided by the concentration of active sites. One may read the kcat/Km as the turnover number divided by the Michaelis constant. Consider “Cj1423 (Campylobacter jejuni subsp. jejuni NCTC 11168 = ATCC 700819)”, for which the Km worked out at 495 ± 65 µM, the kcat came to 1.35 ± 0.04 s⁻¹ and the kcat/Km worked out at 2700 ± 400 M⁻¹ s⁻¹.
